# Measured values published in publication PMC4944284, “Identification of a Functionally Relevant Adeno-Associated Virus Rep68 Oligomeric Interface” (Journal of Virology, 2016).
# Tests used:
# [1] = biological target: the molecule itself; assay: AUC; sedimentation velocity, protein 10 uM, 25 mM Tris-HCl pH 8.0, 200 mM NaCl, 25,000 rpm, 20°C, SEDFIT (Fig. 1B, C)
# [2] = biological target: the molecule itself; assay: AUC; sedimentation velocity, all proteins at 1 mg/ml, else as in Materials and Methods (25 mM Tris-HCl pH 8.0, 200 mM NaCl, 20°C) (Fig. 2D)
protein,measurement,setting,value
"Rep68* (AAV2 Rep68 C151S) (enzyme, source: E. coli BL21(DE3), purified (Ni column, gel filtration on Superdex 200)) MPGFYEIVIKVPSDLDGHLPGISDSFVNWVAEKEWELPPDSDMDLNLIEQAPLTVAEKLQRDFLTEWRRVSKAPEALFFVQFEKGESYFHMHVLVETTGVKSMVLGRFLSQIREKLIQRIYRGIEPTLPNWFAVTKTRNGAGGGNKVVDESYIPNYLLPKTQPELQWAWTNMEQYLSACLNLTERKRLVAQHLTHVSQTQEQNKENQNPNSDAPVIRSKTSARYMELVGWLVDKGITSEKQWIQEDQASYISFNAASNSRSQIKAALDNAGKIMSLTKTAPDYLVGQQPVEDISSNRIYKILELNGYDPQYAASVFLGWATKKFGKRNTIWLFGPATTGKTNIAEAIAHTVPFYGCVNWTNENFPFNDCVDKMVIWWEEGKMTAKVVESAKAILGGSKVRVDQKCKSSAQIDPTPVIVTSNTNMCAVIDGNSTTFEHQQPLQDRMFKFELTRRLDHDFGKVTKQEVKDFFRWAKDHVVEVEHEFYVKKGGAKKRPAPSDADISEPKRVRESVAQPSTSDAEASINYADRLARGHSL",binding result,[1],binds
"Rep68*-N254A (enzyme, source: E. coli BL21(DE3), purified (Ni column, gel filtration on Superdex 200)) MPGFYEIVIKVPSDLDGHLPGISDSFVNWVAEKEWELPPDSDMDLNLIEQAPLTVAEKLQRDFLTEWRRVSKAPEALFFVQFEKGESYFHMHVLVETTGVKSMVLGRFLSQIREKLIQRIYRGIEPTLPNWFAVTKTRNGAGGGNKVVDESYIPNYLLPKTQPELQWAWTNMEQYLSACLNLTERKRLVAQHLTHVSQTQEQNKENQNPNSDAPVIRSKTSARYMELVGWLVDKGITSEKQWIQEDQASYISFAAASNSRSQIKAALDNAGKIMSLTKTAPDYLVGQQPVEDISSNRIYKILELNGYDPQYAASVFLGWATKKFGKRNTIWLFGPATTGKTNIAEAIAHTVPFYGCVNWTNENFPFNDCVDKMVIWWEEGKMTAKVVESAKAILGGSKVRVDQKCKSSAQIDPTPVIVTSNTNMCAVIDGNSTTFEHQQPLQDRMFKFELTRRLDHDFGKVTKQEVKDFFRWAKDHVVEVEHEFYVKKGGAKKRPAPSDADISEPKRVRESVAQPSTSDAEASINYADRLARGHSL",binding result,[2],binds
"Rep68*-Y224F (enzyme, also called Y224F mutant; source: E. coli BL21(DE3), purified (Ni column, gel filtration on Superdex 200)) MPGFYEIVIKVPSDLDGHLPGISDSFVNWVAEKEWELPPDSDMDLNLIEQAPLTVAEKLQRDFLTEWRRVSKAPEALFFVQFEKGESYFHMHVLVETTGVKSMVLGRFLSQIREKLIQRIYRGIEPTLPNWFAVTKTRNGAGGGNKVVDESYIPNYLLPKTQPELQWAWTNMEQYLSACLNLTERKRLVAQHLTHVSQTQEQNKENQNPNSDAPVIRSKTSARFMELVGWLVDKGITSEKQWIQEDQASYISFNAASNSRSQIKAALDNAGKIMSLTKTAPDYLVGQQPVEDISSNRIYKILELNGYDPQYAASVFLGWATKKFGKRNTIWLFGPATTGKTNIAEAIAHTVPFYGCVNWTNENFPFNDCVDKMVIWWEEGKMTAKVVESAKAILGGSKVRVDQKCKSSAQIDPTPVIVTSNTNMCAVIDGNSTTFEHQQPLQDRMFKFELTRRLDHDFGKVTKQEVKDFFRWAKDHVVEVEHEFYVKKGGAKKRPAPSDADISEPKRVRESVAQPSTSDAEASINYADRLARGHSL",binding result,[1],binds
"Rep68*-Y224D (enzyme, source: E. coli BL21(DE3), purified (Ni column, gel filtration on Superdex 200)) MPGFYEIVIKVPSDLDGHLPGISDSFVNWVAEKEWELPPDSDMDLNLIEQAPLTVAEKLQRDFLTEWRRVSKAPEALFFVQFEKGESYFHMHVLVETTGVKSMVLGRFLSQIREKLIQRIYRGIEPTLPNWFAVTKTRNGAGGGNKVVDESYIPNYLLPKTQPELQWAWTNMEQYLSACLNLTERKRLVAQHLTHVSQTQEQNKENQNPNSDAPVIRSKTSARDMELVGWLVDKGITSEKQWIQEDQASYISFNAASNSRSQIKAALDNAGKIMSLTKTAPDYLVGQQPVEDISSNRIYKILELNGYDPQYAASVFLGWATKKFGKRNTIWLFGPATTGKTNIAEAIAHTVPFYGCVNWTNENFPFNDCVDKMVIWWEEGKMTAKVVESAKAILGGSKVRVDQKCKSSAQIDPTPVIVTSNTNMCAVIDGNSTTFEHQQPLQDRMFKFELTRRLDHDFGKVTKQEVKDFFRWAKDHVVEVEHEFYVKKGGAKKRPAPSDADISEPKRVRESVAQPSTSDAEASINYADRLARGHSL",binding result,[1],binds
"Rep68*-Y224P (enzyme, source: E. coli BL21(DE3), purified (Ni column, gel filtration on Superdex 200)) MPGFYEIVIKVPSDLDGHLPGISDSFVNWVAEKEWELPPDSDMDLNLIEQAPLTVAEKLQRDFLTEWRRVSKAPEALFFVQFEKGESYFHMHVLVETTGVKSMVLGRFLSQIREKLIQRIYRGIEPTLPNWFAVTKTRNGAGGGNKVVDESYIPNYLLPKTQPELQWAWTNMEQYLSACLNLTERKRLVAQHLTHVSQTQEQNKENQNPNSDAPVIRSKTSARPMELVGWLVDKGITSEKQWIQEDQASYISFNAASNSRSQIKAALDNAGKIMSLTKTAPDYLVGQQPVEDISSNRIYKILELNGYDPQYAASVFLGWATKKFGKRNTIWLFGPATTGKTNIAEAIAHTVPFYGCVNWTNENFPFNDCVDKMVIWWEEGKMTAKVVESAKAILGGSKVRVDQKCKSSAQIDPTPVIVTSNTNMCAVIDGNSTTFEHQQPLQDRMFKFELTRRLDHDFGKVTKQEVKDFFRWAKDHVVEVEHEFYVKKGGAKKRPAPSDADISEPKRVRESVAQPSTSDAEASINYADRLARGHSL",binding result,[1],binds
